Consider 15 proteins from paper PMC5665175 (Immunity, 2017).

B1: 6xHis-Sumo-Imd(3-273) (domain or fragment, D. melanogaster, UniProt Q7K4Z4 3-273, looked up)
chain: KLRNLLPTIFGGKEAQNPTPVEGRLEKDAAPVDDNEPDNNNSGALALPSTAGTPTASSDLTESVLRELSDPNYNSMDVVHSANIPGTLSNVQTNNTMNVHSAQQQVVMNFSNANNLHFGSVYNFNQNLSACSSRKGSTSTAEESVASPDGKPRASATRKTVSIVAMMQSQEEPDVRLLDVVSTHLGEGWKQVMRDLGMSEGQIDQAIIDHQMHGNIREVIYQLLLQWIRSSADGVATVGRLTTLLWESQHRDCVQRMKLVWKALEKRKTNS
B2: 6xHis-Sumo-Imd(31-273) (domain or fragment, D. melanogaster, UniProt Q7K4Z4 31-273, looked up)
chain: AAPVDDNEPDNNNSGALALPSTAGTPTASSDLTESVLRELSDPNYNSMDVVHSANIPGTLSNVQTNNTMNVHSAQQQVVMNFSNANNLHFGSVYNFNQNLSACSSRKGSTSTAEESVASPDGKPRASATRKTVSIVAMMQSQEEPDVRLLDVVSTHLGEGWKQVMRDLGMSEGQIDQAIIDHQMHGNIREVIYQLLLQWIRSSADGVATVGRLTTLLWESQHRDCVQRMKLVWKALEKRKTNS
B3: 6xHis-Sumo-Imd(31-273) Δ144-177 (domain or fragment, D. melanogaster, UniProt Q7K4Z4 31-273, looked up)
chain: AAPVDDNEPDNNNSGALALPSTAGTPTASSDLTESVLRELSDPNYNSMDVVHSANIPGTLSNVQTNNTMNVHSAQQQVVMNFSNANNLHFGSVYNFNQNLSACSSRKGSTSTARLLDVVSTHLGEGWKQVMRDLGMSEGQIDQAIIDHQMHGNIREVIYQLLLQWIRSSADGVATVGRLTTLLWESQHRDCVQRMKLVWKALEKRKTNS
B4: 6xHis-Sumo-Imd(31-273) Δ76-109 (domain or fragment, D. melanogaster, UniProt Q7K4Z4 31-273, looked up)
chain: AAPVDDNEPDNNNSGALALPSTAGTPTASSDLTESVLRELSDPNYMNFSNANNLHFGSVYNFNQNLSACSSRKGSTSTAEESVASPDGKPRASATRKTVSIVAMMQSQEEPDVRLLDVVSTHLGEGWKQVMRDLGMSEGQIDQAIIDHQMHGNIREVIYQLLLQWIRSSADGVATVGRLTTLLWESQHRDCVQRMKLVWKALEKRKTNS
B5: 6xHis-Sumo-Imd(31-167) (domain or fragment, D. melanogaster, UniProt Q7K4Z4 31-167, looked up)
chain: AAPVDDNEPDNNNSGALALPSTAGTPTASSDLTESVLRELSDPNYNSMDVVHSANIPGTLSNVQTNNTMNVHSAQQQVVMNFSNANNLHFGSVYNFNQNLSACSSRKGSTSTAEESVASPDGKPRASATRKTVSIVA
B6: 6xHis-Sumo-Imd(31-273) Δ114-121 (domain or fragment, D. melanogaster, UniProt Q7K4Z4 31-273, looked up)
chain: AAPVDDNEPDNNNSGALALPSTAGTPTASSDLTESVLRELSDPNYNSMDVVHSANIPGTLSNVQTNNTMNVHSAQQQVVMNFSSVYNFNQNLSACSSRKGSTSTAEESVASPDGKPRASATRKTVSIVAMMQSQEEPDVRLLDVVSTHLGEGWKQVMRDLGMSEGQIDQAIIDHQMHGNIREVIYQLLLQWIRSSADGVATVGRLTTLLWESQHRDCVQRMKLVWKALEKRKTNS
B7: 6xHis-Sumo-PGRP-LC(201-242) WT (domain or fragment, D. melanogaster, UniProt Q9GNK5 201-242, looked up)
chain: ATQGIGSIALTNSTDVTFGDKHFYEGPVTIQQFLIDNRDKWK
B8: 6xHis-Sumo-Imd(100-125) (domain or fragment, D. melanogaster, UniProt Q7K4Z4 100-125, looked up)
chain: NVHSAQQQVVMNFSNANNLHFGSVYN
B9: 6xHis-Sumo-PGRP-LE(80-127) WT (domain or fragment, D. melanogaster, UniProt Q9VXN9 80-127, looked up)
chain: DLMNSINSIQTLGNVNISNSTNVHIGNVTNINGNIQIIADGLTQNRRD
B10: 6xHis-Sumo-PGRP-LE(80-127) I104A (domain or fragment, D. melanogaster, UniProt Q9VXN9 80-127, looked up)
chain: B9 chain with I25A
B11: 6xHis-Sumo-PGRP-LE(80-127) I116A (domain or fragment, D. melanogaster, UniProt Q9VXN9 80-127, looked up)
chain: B9 chain with I37A
B12: 6xHis-Sumo-PGRP-LE(80-127) S99A (domain or fragment, D. melanogaster, UniProt Q9VXN9 80-127, looked up)
chain: B9 chain with S20A
B13: 6xHis-Sumo-PGRP-LE(80-127) I96A (domain or fragment, D. melanogaster, UniProt Q9VXN9 80-127, looked up)
chain: B9 chain with I17A
B14: 6xHis-Sumo-PGRP-LC(201-242) D215A (domain or fragment, D. melanogaster, UniProt Q9GNK5 201-242, looked up)
chain: B7 chain with D15A
B15: 6xHis-Sumo-PGRP-LC(201-242) E225A (domain or fragment, D. melanogaster, UniProt Q9GNK5 201-242, looked up)
chain: B7 chain with E25A

Residue numbers refer to the chain shown, from its start. Names and notes keep the numbering of the source.

One series deals with the molecule itself. Put plainly: ThT fluorescence of amyloid polymerisation.
Turning to B1, the binding result is “binds”.

A further series deals with the molecule itself. Put plainly: SDD-AGE.
B2: the binding result is given as “binds”.
B3: the binding result is on record as “binds”.
B4: the binding result was “binds”.
On the same count and under the same terms, for B5 the value was “binds”; for B6, “binds”.

Another series deals with the molecule itself. The series is described as follows: SEC.
Take B7: the binding result is recorded as “binds”.

Another series concerns the molecule itself. The series is described as follows: X-ray diffraction from fibrils.
In the case of B8, the binding result is given as “binds”.

A further series deals with the molecule itself. The series is described as follows: SDD-AGE. This is another data set of the same source.
With B9, the binding result is given as “binds”.
Still for that read-out and setting: under B10 stands “binds”; under B11, “binds”; under B12, “binds”.
Still for that read-out and setting: under B13 stands “binds”.
Same read-out and setting: for B14 the value was “binds”.
Turning to B15, the binding result is given as “binds”.
